Data: PMC12349009 (2025)
Where a chain is given by its changes, count along the chain named.

Key:
[1] = molecular target: soluble recombinant NKp65 ectodomain with threonine at position 131 (NKp65-Thr131) (human) (UniProt D3W0D1); assay: SPR; mean of KD1 (bivalent model) from at least three measurements, protein produced independently twice, 2 different chip lots; biotinylated NKp65 immobilised on a streptavidin chip, sKACL as analyte; which runs were pooled is not told
[2] = molecular target: soluble recombinant NKp65 ectodomain with proline at position 131 (NKp65-Pro131) (human) (UniProt D3W0D1); assay: as above
[3] = molecular target: T1, soluble recombinant NKp65 ectodomain with proline at position 131 (NKp65-Pro131) (human, UniProt D3W0D1 63-207, biotin on the N-terminal BirA tag (enzymatic, BirA ligase)); assay: SPR; KD1 of bivalent fit, multi-cycle kinetics
T1 chain: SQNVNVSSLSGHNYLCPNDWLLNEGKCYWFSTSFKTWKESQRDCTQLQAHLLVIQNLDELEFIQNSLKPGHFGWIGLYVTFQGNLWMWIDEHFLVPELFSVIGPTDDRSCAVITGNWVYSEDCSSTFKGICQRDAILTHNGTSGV

[4] = molecular target: T2, soluble recombinant NKp65 ectodomain with threonine at position 131 (NKp65-Thr131) (human, UniProt D3W0D1 63-207, substitution of proline by threonine at amino acid position 131, biotin on the N-terminal BirA tag (enzymatic, BirA ligase)); assay: SPR; KD1 of bivalent fit, multi-cycle kinetics
T2 sequence: T1 chain with P69T

[5] = molecular target: soluble recombinant NKp65 ectodomain with threonine at position 131 (NKp65-Thr131) (human) (UniProt D3W0D1); assay: SPR; single-cycle kinetics, Biacore X100; 73.4 ± 12.4 RU biotinylated NKp65 immobilised on a streptavidin chip (Sensor Chip SA), pulsed 120 s with sKACL 0.247-20 nM, flow 30 µl/min, final dissociation 600 s; bivalent binding model
[6] = molecular target: soluble recombinant NKp65 ectodomain with proline at position 131 (NKp65-Pro131) (human) (UniProt D3W0D1); assay: as above

B1: recombinant KACL ectodomain (sKACL) (ligand)
chain: WSKHAKPVACSGDWLGVRDKCFYFSDDTRNWTASKIFCSLQKAELAQIDTQEDMEFLKRYAGTDMHWIGLSRKQGDSWKWTNGTTFNGWFEIIGNGSFAFLSADGVHSSRGFIDIKWICSKPKYFL
KD1 (bivalent fit) [1]: 35 nM | KD1 (bivalent fit) [2]: 8.2 nM | Kd [3]: 13.6 nM | Kd [4]: 57.1 nM | Kd [5]: 20.3 nM | Kd [6]: 2.6 nM
